{
  "source": "patent US11957762B2",
  "about": "“Immune tolerant and non-immune tolerant elastin-like recombinant peptides and methods of use” (University of Utah Research Foundation, priority 2015, dated 2024)",
  "molecules": {"B1": {"name": "ovalbumin (protein)", "chain": "GSIGAASMEFCFDVFKELKVHHANENIFYCPIAIMSALAMVYLGAKDSTRTQINKVVRFDKLPGFGDSIEAQCGTSVNVHSSLRDILNQITKPNDVYSFSLASRLYAEERYPILPEYLQCVKELYRGGLEPINFQTAADQARELINSWVESQTNGIIRNVLQPSSVDSQTAMVLVNAIVFKGLWEKAFKDEDTQAMPFRVTEQESKPVQMMYQIGLFRVASMASEKMKILELPFASGTMSMLVLLPDEVSGLEQLESIINFEKLTEWTSSNVMEERKIKVYLPRMKMEEKYNLTSVLMAMGITDVFSSSANLSGISSAESLKISQAVHAAHAEINEAGREVVGSAEAGVDAASVSEEFRADHPFLFCIKHIATNAVLFFGRCVSP", "notes": "positive control protein antigen"}, "B2": {"name": "G(…)21GG (protein)", "chain": "GVPGLGAGAGVPGLGAGAGVPGLGAGAGVPGLGAGAGVPGLGAGAGVPGLGAGAGVPGLGAGAGVPGLGAGAGVPGLGAGAGVPGLGAGAGVPGLGAGAGVPGLGAGAGVPGLGAGAGVPGLGAGAGVPGLGAGAGVPGLGAGAGVPGLGAGAGVPGLGAGAGVPGLGAGAGVPGLGAGAGVPGLGAGAGVPGLGAGAGVPGLGAGAGVPGLGAGAGVPGLGAGAGVPGLGAGAGVPGLGAGAGVPGLGAGAGVPGLGAGAGVPGLGAGAGVPGLGAGAGVPGLGAGAGVPGLGAGAGVPGLGAGAGVPGLGAGAGVPGLGAGAGVPGLGAGAGVPGLGAGAGVPGLGAGAGVPGLGAGAGVPGLGAGAGVPGLGAGAGVPGLGAGAGVPGLGAGAGVPGLGAGAGVPGLGAGAGVPGLGAGAGVPGLGAGAGVPGLGAGAGVPGLGAGAGVPGLGAGAGVPGLGAGAGVPGLGAGAGVPGLGAGAGVPGLGAGAGVPGLGAGAGVPGLGAGAGVPGLGAGAGVPGLGAGAGVPGLGAGAGVPGLGAGAGVPGLGAGAGVPGLGAGAGVPGLGAGAGVPGLGAGAGVPGLGAGAGVPGLGAGAGVPGLGAGAGVPGLGAGAGVPGLGAGAGVPGLGAGAGVPGLGAGAGVPGLGAGAGVPGLGAGAGVPGLGAGAGVPGLGAGAGVPGLGAGAGVPGLGAGAGVPGLGAGAGVPGLGAGAGVPGLGAGAGVPGLGAGAGVPGLGAGAGVPGLGAGAGVPGLGAGAGVPGLGAGAGVPGLGAGAGVPGLGAGAGVPGLGAGAGVPGLGAGAGVPGLGAGAGVPGLGAGAGVPGLGAGAGVPGLGAGAGVPGLGAGAGVPGLGAGAGGG"}},
  "key": {"B3Z cells": {"system": "B3Z cells", "experiment": "B3Z CD8+ T cell hybridoma activation assay", "format": "cell-based", "details": "DC2.4 cells pre-incubated with antigen", "method": "B3Z CD8+ T cell hybridoma activation assay. B3Z cells (a gift from N. Shastri) are a CD8+ T-cell hybridoma engineered to secrete β-galactosidase when their T-cell receptors are engaged with an […]:H2K^b complex.^(33) To do this assay, 1×10^5 DC2.4 cells/well were set in 96-well plates. OVA, […] peptide (SEQ ID NO: 22), and iTEP-pOVA NP (SEQ ID NO: 56) at indicated concentrations were loaded into the cell culture for 16 hours and then washed away. 1×10^5 B3Z cells/well were added to the DC2.4 cell culture and co-cultured with DC2.4 cells for 24 hours. The cells were washed with PBS before 100 μL of lysis buffer (PBS with 100 mM 2-mercaptoethanol, 9 mM MgCl2, 0.125% NP-40) together with 0.15 mM chlorophenol red β-galactoside were added into the wells. After the plates were incubated at 37° C. for 4 hours, the reaction was stopped with 50 μL/well of 15 mM EDTA and 300 mM glycine. The OD at 570 nm was measured and the OD at 630 nm was used as reference. The OD was used as an indicator as activation status of B3Z cells.\nActivation of B3Z hybridoma (CD8+T) cells. This assay was done with a protocol described previously (Cho et al., J Drug Target, 2015; p 1-12)."}, "C57BL/6 mice [1]": {"system": "C57BL/6 mice", "experiment": "In vivo CTL response by ELISPOT IFN-γ assay", "parameters": "species or system mouse", "details": "subcutaneous immunization twice, 2 nmol SIINFEKL equivalents per mouse with IFA", "source_text": "in vivo CTL response by ELISPOT IFN-γ assay. C57BL/6 mice were immunized subcutaneously with each immunogen (2 nmol […] equivalents per mouse) together with incomplete Freunds Adjuvants (IFA; Sigma, USA) at their left flanks. The immunization was repeated at their right flanks 1 week later. At 10 days after the second immunization, mice were sacrificed, and the spleens were harvested. The spleens of the sacrificed mice were teased into single-cell suspensions and filtered through nylon mesh […]. Red blood cells were lysed by Ammonium-Chloride-Potassium (ACK) lysing buffer. The washed and resuspended single cells were counted using Contess™ Automated Cell Counter (Invitrogen, USA). Splenocytes (8×10^6/mL) were incubated in RPMI-1640 medium supplemented with 10% heat inactivated fetal calf serum, 2 mM glutamine, 100 units/mL penicillin and 100 μg/mL streptomycin (Invitrogen, USA), in a 14 mL polypropylene tissue culture tube for 48 hours, with or without […] peptide (SEQ ID NO: 22) (2.5 μg/mL). The cells were then washed and recounted. 2×10^5 live cells in 100 μL medium were then loaded into wells of 96-well Filtration plates (Millipore, USA) coated with […] of capture anti-mouse IFN-γ mAb (Clone: R4-6A2, Biolegend, USA). Triplicates were set up for each condition. Cells were discarded after 24 hours of culture and the wells were incubated with […] of detectionbiotinylated, anti-mouse IFN-γ mAb overnight (Clone: XMG1.2-Biotin, Biolegend, USA). After the unbound antibodies were washed away from the wells, the bound antibodies were detected using horseradish peroxidase (HRP Avidin, Biolegend, USA) together with 3-amino-9-ethyl-carbazole (AEC) substrate (Sigma, USA). The membranes on the bottom of the wells were peeled off, and color spots on the membrane were scanned. The spots were automatically counted using ImageJ software.\nAnimal immunization. C57BL/6 mice were immunized by the subcutaneous injection of 2 nmol iTEP NP vaccines and incomplete Freunds Adjuvants (IFA; Sigma, USA) at their left flanks. Immunization was repeated at their right flanks after 1 week. On day 10 after the second immunization, mice were sacrificed, and the spleens were harvested."}, "DC2.4 cells": {"system": "DC2.4 cells", "experiment": "Presentation of the CTL epitope […] by DCs (flow cytometry)", "format": "cell-based, murine", "details": "16 h incubation with DC2.4 cells", "method": "Presentation of the CTL epitope, […], by DCs. Cells of a murine DC line (DC2.4, a gift from K. Rock)^(32) were plated at 2.5×10^5/500 μL/well in 24-well plates. 500 μL of OVA, […] peptide (SEQ ID NO: 22), or iTEPB-iTEPA-pOVA NP (SEQ ID NO: 56) (iTEP-pOVA NP hereafter) were dissolved in cell culture media and added to the wells containing DCs. The cells were further cultured for 16 hrs. at 37° C. with 5% CO2 before they were collected and washed with PBS. The MHC class I complex, H-2kb/[…] presented on DC surface was stained with a PE-tagged monoclonal antibody 25-D1.16 (Biolegend, 1:100 dilution) and quantified with flow cytometry (5×10^4 events collected per sample). The data are presented as MFI normalized to the MFI of untreated DC2.4 cells.\nPresentation of […] epitope vaccine by DCs. The presentation was studied as previously described (Cho et al., J Drug Target, 2015; p 1-12). The concentration of iTEP-vaccine fusions (NPs) used in this experiment was 5 μM. The results of presentation were shown as mean fluorescence intensity (MFI) of 5000 treated, live cells in a given treatment, which were normalized to the MFI value of untreated DC2.4 cells."}, "regular 4T1-luc cells": {"system": "regular 4T1-luc cells", "experiment": "Cytotoxicity, regular 4T1-luc cells", "format": "cell-based, murine", "details": "Mus musculus; regular 4T1-luc cells, 72 hours; read-out: IC50", "method": "Cytotoxicity studies. The cytotoxicity was measured as previously described (Zhao, et al; Mol. Pharm, 2014; 11(8):2703-12). The incubation time was 72 hours. 4T1-lu mammosphere cells were generated as the previously described (Zhao, et al; Mol. Pharm, 2014; 11(8):2703-12)."}, "C57BL/6 mice [2]": {"system": "C57BL/6 mice", "experiment": "Humoral immunogenicity: IgG titers by ELISA in sera of immunized mice", "details": "mouse, in vivo", "method": "Immunization of iTEPs and collection of immune sera. C57BL/6 mice were immunized twice at their right hocks with iTEPs at a dose of 100 μg/mouse. […] At 1 week after the second immunization, 100 μL blood was collected from each immunized mouse. The blood samples were allowed to sit for 30 minutes to one hour at room temperature to clot. Sera were collected from the blood samples after the samples were spun for 10 min at 14,000 rpm at 4° C. The sera were kept at −80° C. before an analysis of the titers of iTEP-specific IgG.\nDetermination of IgG titers by ELISA. […] Plates were read at OD 450 nm (minus 570 nm for wavelength correction).\nThe end point titer of a serum IgG was defined as the reciprocal of the higher serum dilution which OD value from the ELISA assay is higher than a statistically valid cutoff. The titer results were expressed as IgG titers (Log 10) for each sample. […] The value of the cutoff was calculated using the following equation:^(31) Cutoff=X+SD t√{square root over (1+(1/n))} where X is the mean absorbance readings of independent PBS control sera, SD is the standard deviation of the readings, n is the number of independent PBS controls (mouse samples), t is the (1−α)th percentile of the one-tailed t-distribution with v=n−1 degrees of freedom."}, "[3]": {"experiment": "Thermally-induced reversible phase transition (turbidity OD350 vs temperature)", "format": "physicochemical", "source_text": "Characterization of thermally-induced, reversible, inverse phase transition of iTEPs and the iTEPB-iTEPA-pOVA fusion. The phase transitions of iTEP or iTEP fusions were characterized by turbidity changes of sample solutions as a function of temperature. Specifically, the optical density at 350 nm (OD350) of a sample solution was monitored using an UV-visible spectrophotometer equipped with a multi-cell thermoelectric temperature controller (Cary 300, Varian Instruments, Walnut Creek, CA) while the solution was heated from 20° C. to 80° C. and then cooled to 20° C. at a rate of 1° C./min. The maximum first derivative of the turbidity curve of a sample was identified. The transition temperature (Tt) of the sample is the temperature that corresponds to the maximum derivative."}},
  "note": "Values joined by “and” are separate entries in the source; they are usually repeats but may differ in a detail not shown here. Equal values may be shown once.",
  "data": [
    {"molecule": "SIINFEKL [reference compound]", "values": [
      {"measurement": "activation of B3Z cells", "setting": "B3Z cells", "result": "highest activity among all treatments"},
      {"measurement": "SIINFEKL-restricted activated splenocytes (INF-γ ELISPOT)", "setting": "C57BL/6 mice [1]", "result": "60 spots per million seeded splenocytes"},
      {"measurement": "presentation of SIINFEKL by DCs", "setting": "DC2.4 cells", "result": "much stronger"}
    ]},
    {"molecule": "CC(=O)O[C@H]1C(=O)[C@@]2(C)[C@H]([C@H](OC(=O)c3ccccc3)[C@]3(O)C[C@H](OC(=O)[C@H](O)[C@@H](NC(=O)c4ccccc4)c4ccccc4)C(C)=C1C3(C)C)[C@]1(OC(C)=O)CO[C@@H]1C[C@@H]2O", "note": "[PTX, paclitaxel, reference compound]", "values": [
      {"measurement": "IC50", "setting": "regular 4T1-luc cells", "result": 6.3, "unit": "nM"}
    ]},
    {"molecule": "B1", "values": [
      {"measurement": "SIINFEKL-restricted activated splenocytes (INF-γ ELISPOT)", "setting": "C57BL/6 mice [1]", "result": "61 spots per million seeded splenocytes"}
    ]},
    {"molecule": "B2", "values": [
      {"measurement": "humoral immunogenicity", "setting": "C57BL/6 mice [2]", "result": "did not show different immunogenicity"},
      {"measurement": "Relative Hydrophobicity", "setting": "[3]", "result": "High"},
      {"measurement": "(heating) Tt", "setting": "[3]; 5 μM", "result": 50.5, "unit": "°C"},
      {"measurement": "Tt (cooling)", "setting": "[3]; 25 μM in H2O", "result": "34.00 ± 0.58", "unit": "°C"},
      {"measurement": "Tt (heating)", "setting": "[3]; 25 μM in H2O", "result": "35.7 °C and 35.70 ± 0.58 °C"}
    ]}
  ]
}
